In patent US20220380791A1:

Target: M6P receptor (M6PR) (human)
Test: cell-based or functional assay

- intracellular α-gal A activity of Fabry patient fibroblasts after 18 hours incubation with 10 µg/ml enzyme (fold of untreated cells): 134 fold
Substance: Agalsidase beta (Genzyme, Fabrazyme) (from UniProt P06280 32-429)
